The text below walks through data of the RNAGym collection of RNA variant scans (doi:10.7554/elife.90254).

Sequences and labels used below:
B1: LINE1-full (parent)
chain: UACGUAGGUGGUUUUCCCCUGAUAGUGCUAAGGGGGCCUGGAAGUUUGGACUGGGCAGAGCUCAACACAGCGUGGCAAAGUGGCUGUGGCUAGACUGCCUCUCUGGAUUCCUCGUCACUCAGCAGGGCAUCUCUGAGAGAAAUGCC

This data set covers variants of B1. In words: self-cleavage, relative activity (ratio to wild type); higher = more cleavage; in vitro, sequencing; the parent is a self-cleaving ribozyme.
As to U91C U119G, the self-cleavage turned out to be 1.53.

Turning to U87C C120A, the self-cleavage was determined as 0.18.

In the case of U91A A138G, the self-cleavage amounted to 0.84.

Consider G89A G137A, for which the self-cleavage was found to be 0.05.

With U85C U104C, the self-cleavage was determined as 0.18.

With U85C U104A, the self-cleavage stood at 0.08.

Turning to U87A C99U, the self-cleavage is 0.12.

As for U87C G139A, the self-cleavage came to 0.14.

For U85C A92U, the self-cleavage was determined as 0.

Turning to U85C U115C, the self-cleavage is 0.21.

Regarding G86A A141U, the self-cleavage amounted to 0.13.

Turning to G89A U132C, the self-cleavage came to 0.06.

In the case of U87A U96C, the self-cleavage worked out at 0.12.

In the case of U87A U96A, the self-cleavage came out at 0.07.

As to U87A A92G, the self-cleavage was found to be 0.13.

Consider U85C G93U, for which the self-cleavage came out at 0.06.

Consider G88A U96C, for which the self-cleavage amounted to 0.02.

In the case of U87C U91G, the self-cleavage was found to be 0.08.

For the variant U87G U108C, the self-cleavage was 0.16.

As to U91C A141U, the self-cleavage turned out to be 0.51.

In the case of U85A U91C, the self-cleavage is 0.04.

On to U85A U91A, for which the self-cleavage came to 0.11.

As for G86A C118U, the self-cleavage was 0.09.

G89A U143A: the self-cleavage came to 0.05.

In the case of U85G U132C, the self-cleavage was 0.14.

Consider G89U G93A, for which the self-cleavage was found to be 0.04.

U85C U102C: the self-cleavage was determined as 0.12.

Turning to G88A G114A, the self-cleavage is 0.08.

For the variant C90U A94U, the self-cleavage came out at 0.04.

As to U85A U108C, the self-cleavage amounted to 0.12.

Regarding U85A U108G, the self-cleavage was determined as 0.12.

On to U85A U108A, for which the self-cleavage was determined as 0.17.

On to U87A U112C, for which the self-cleavage was 0.07.

U91C C113A: the self-cleavage was determined as 0.82.

For the variant G86A U108A, the self-cleavage stood at 0.02.

With G88U U104C, the self-cleavage was 0.05.

With U85C U112A, the self-cleavage is 0.19.

For U85C U112C, the self-cleavage stood at 0.18.

As for U91A A92G, the self-cleavage worked out at 0.16.

As to U91A A92U, the self-cleavage was 1.33.

With U87G A121U, the self-cleavage came to 0.2.

In the case of U91C C118U, the self-cleavage was determined as 0.67.

With G88A A138G, the self-cleavage came to 0.06.

U87A: the self-cleavage worked out at 0.08.

Regarding U87G, the self-cleavage was 0.21.

Consider U87C, for which the self-cleavage was 0.22.

With U87A U91C, the self-cleavage stood at 0.07.

On to U85C G89A, for which the self-cleavage came to 0.03.

Regarding U91A U130C, the self-cleavage was 0.79.

Turning to G86A A138G, the self-cleavage amounted to 0.13.

With U87A U115G, the self-cleavage stood at 0.13.

In the case of U85C A138G, the self-cleavage came to 0.17.

Take U85C A138U: the self-cleavage was 0.13.

For U85A C128G, the self-cleavage was determined as 0.06.

Consider U85G A140G, for which the self-cleavage stood at 0.19.

Take U87C U132C: the self-cleavage was 0.19.

Take U91A U96A: the self-cleavage was 0.04.

On to U91C A94U, for which the self-cleavage is 0.2.

Take U91C A94G: the self-cleavage was 0.15.

Consider U87C U112A, for which the self-cleavage stood at 0.16.

Turning to U87C U112C, the self-cleavage was 0.23.

Consider U85A U132A, for which the self-cleavage is 0.08.

On to G88C U132C, for which the self-cleavage stood at 0.09.

As for G88U U100C, the self-cleavage worked out at 0.04.

U91C C145U: the self-cleavage came out at 0.43.

For G89U A107G, the self-cleavage was 0.04.

In the case of G89U A124G, the self-cleavage was 0.16.

For the variant U87C G137A, the self-cleavage came to 0.5.

Consider U87C G137U, for which the self-cleavage worked out at 0.27.

For the variant U91C U132C, the self-cleavage worked out at 0.83.

Consider U91A A129U, for which the self-cleavage stood at 0.86.

Consider U87C U96A, for which the self-cleavage was 0.09.

Consider U87C G97A, for which the self-cleavage came out at 0.12.

Consider U85G A138U, for which the self-cleavage was determined as 0.

Take U87A U134A: the self-cleavage amounted to 0.13.

For U85C C146A, the self-cleavage came to 0.48.

U85C C146U: the self-cleavage was found to be 0.27.

In the case of G86A A140G, the self-cleavage worked out at 0.03.

As for U85C U108C, the self-cleavage was determined as 0.22.

Consider U91C U109C, for which the self-cleavage came out at 0.61.

On to U87C U134G, for which the self-cleavage was determined as 0.31.

For U87C U134C, the self-cleavage worked out at 0.11.

Turning to U87G U112C, the self-cleavage was 0.05.

Consider U85A U100A, for which the self-cleavage was 0.05.

As for U87G U130C, the self-cleavage turned out to be 0.41.

Turning to G89A A107G, the self-cleavage came out at 0.01.

Turning to U87A A136G, the self-cleavage worked out at 0.08.

For the variant G86A U87C, the self-cleavage came out at 0.04.

As for U85C U109C, the self-cleavage is 0.17.

In the case of U85C U109A, the self-cleavage worked out at 0.12.

For G89A U112C, the self-cleavage stood at 0.05.

As for C90U U143C, the self-cleavage amounted to 0.

As for U87A A117G, the self-cleavage was found to be 0.09.

For C90A C99G, the self-cleavage turned out to be 0.02.

U85C A140U: the self-cleavage came to 0.16.

Regarding G88A U91C, the self-cleavage was determined as 0.05.

With U85C A117C, the self-cleavage stood at 0.25.

In the case of G88A U143A, the self-cleavage is 0.07.

Consider U91A U143A, for which the self-cleavage was determined as 0.52.

G89C A124G: the self-cleavage came out at 0.08.

On to U91C G125A, for which the self-cleavage was found to be 0.32.

Regarding G88C A140G, the self-cleavage worked out at 0.

As to C90U U130C, the self-cleavage was 0.04.

Regarding U85A G93U, the self-cleavage turned out to be 0.08.

With U85A G93A, the self-cleavage was 0.05.

For G88C G105A, the self-cleavage came out at 0.06.

With U87G A107G, the self-cleavage worked out at 0.

As to U87C A142G, the self-cleavage came out at 0.25.

Turning to U91A A124U, the self-cleavage was found to be 0.48.

As to U87C C146A, the self-cleavage turned out to be 0.2.

Regarding U85C U91C, the self-cleavage was 0.06.

Consider U85G U143C, for which the self-cleavage amounted to 0.13.

In the case of G89U A117G, the self-cleavage is 0.

Turning to U91A U109C, the self-cleavage came out at 0.65.

Regarding U91C G97A, the self-cleavage is 0.05.

For G88A C146U, the self-cleavage was 0.07.

Turning to U87C A94U, the self-cleavage is 0.05.

For the variant U87C A94G, the self-cleavage stood at 0.14.

U85A G126U: the self-cleavage turned out to be 0.07.

For the variant G88A A117G, the self-cleavage turned out to be 0.07.

As for G86A U115C, the self-cleavage came to 0.12.

Take U87C U102A: the self-cleavage was 0.12.

Consider U91A U102C, for which the self-cleavage turned out to be 0.22.

Take G89A A140G: the self-cleavage was 0.06.

For the variant C90U A142G, the self-cleavage worked out at 0.03.

On to U87C A136C, for which the self-cleavage came out at 0.16.

Take U87C A136G: the self-cleavage worked out at 0.24.

As to U91A G144A, the self-cleavage was determined as 0.88.

For G86U A129U, the self-cleavage is 0.09.

Turning to U87A U109A, the self-cleavage came to 0.08.

Regarding U85A U115A, the self-cleavage came to 0.09.

In the case of U85A U115C, the self-cleavage was 0.13.

In the case of U87C C145A, the self-cleavage came out at 0.27.

For the variant U87G A94U, the self-cleavage was 0.13.

Consider U87C A121U, for which the self-cleavage amounted to 0.2.

With U91A U104A, the self-cleavage was determined as 0.46.

Consider G86A A94G, for which the self-cleavage turned out to be 0.06.

Take G88A C120U: the self-cleavage turned out to be 0.09.

For U91A A117U, the self-cleavage turned out to be 0.6.

With G88A C110U, the self-cleavage is 0.04.

Turning to C90A A141G, the self-cleavage was determined as 0.03.

For the variant U85C G144U, the self-cleavage turned out to be 0.19.

In the case of U85A U102C, the self-cleavage was 0.13.

As for U85A U109C, the self-cleavage was 0.07.

As for U85A U109A, the self-cleavage is 0.06.

With U87C C103A, the self-cleavage was determined as 0.1.

For the variant U91A U100C, the self-cleavage was found to be 0.96.

Take C90A A107U: the self-cleavage is 0.03.

With C90A A107G, the self-cleavage was 0.04.

Consider G88A A121G, for which the self-cleavage came out at 0.06.

On to U87C G144A, for which the self-cleavage stood at 0.24.

As to G88A U130C, the self-cleavage is 0.01.

As to G86A G127C, the self-cleavage stood at 0.09.

Take U85C U100C: the self-cleavage came to 0.28.

Take U87C G88A: the self-cleavage was 0.09.

Turning to U91C U112A, the self-cleavage amounted to 0.42.

As for U91C U104C, the self-cleavage stood at 1.15.

Regarding U91C U104A, the self-cleavage was determined as 0.34.

On to U87C U100C, for which the self-cleavage turned out to be 0.26.

Regarding U87C U100A, the self-cleavage was determined as 0.1.

As to U87G A141G, the self-cleavage was 0.

For C90U G93U, the self-cleavage was 0.04.

On to U85C A136U, for which the self-cleavage amounted to 0.24.

Regarding U85C A136G, the self-cleavage stood at 0.2.

As for U85C A136C, the self-cleavage turned out to be 0.24.

For G88U A138G, the self-cleavage stood at 0.06.

For the variant G89C U130C, the self-cleavage is 0.09.
